One molecule from patent US20210221876A1 can be followed below.

Test [1] addresses h12H4 heavy chain P52bG mutant. The test is described as follows: competitive ELISA; row P52bG (heavy chain CDR2 mutant of h12H4); reference wt h12H4.
Test [2] deals with h12H4 heavy chain Y52aF mutant. The test is described as follows: competitive ELISA; row Y52aF (heavy chain CDR2 mutant of h12H4); reference wt h12H4. In general terms: ELISA stands for enzyme-linked immunosorbent assay.
The target of test [3] is h12H4 light chain P95Gz mutant. The test is described as follows: competitive ELISA; row P95Gz (light chain CDR3 mutant of h12H4); reference wt h12H4.
Chain of h12H4 light chain P95Gz mutant (VH, as listed by the source, chain 1 of 2): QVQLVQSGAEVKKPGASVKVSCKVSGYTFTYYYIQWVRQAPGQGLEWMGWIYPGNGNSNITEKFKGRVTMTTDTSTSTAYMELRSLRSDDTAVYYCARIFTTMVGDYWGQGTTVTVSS
Chain of h12H4 light chain P95Gz mutant (VL, as listed by the source, chain 2 of 2): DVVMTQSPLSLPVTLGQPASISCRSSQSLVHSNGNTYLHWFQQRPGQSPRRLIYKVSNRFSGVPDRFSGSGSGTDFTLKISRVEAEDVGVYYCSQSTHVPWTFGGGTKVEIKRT

Chain of h12H4 heavy chain P52bG mutant (VH, as listed by the source limits assumed, chain 1 of 2): as the sequence (VH, as listed by the source, chain 1 of 2) above, with P53G counted along it
Chain of h12H4 heavy chain P52bG mutant (VL, as listed by the source limits assumed, chain 2 of 2): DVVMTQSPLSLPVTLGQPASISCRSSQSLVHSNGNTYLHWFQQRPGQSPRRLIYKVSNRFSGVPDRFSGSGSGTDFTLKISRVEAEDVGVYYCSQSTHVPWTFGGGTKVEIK
Chain of h12H4 heavy chain Y52aF mutant (VH, as listed by the source limits assumed, chain 1 of 2): as the sequence (VH, as listed by the source, chain 1 of 2) above, with Y52F counted along it
Chain of h12H4 heavy chain Y52aF mutant (VL, as listed by the source limits assumed, chain 2 of 2): as the sequence (VL, as listed by the source limits assumed, chain 2 of 2) above

Regarding SVNVDKQPKYEYSL [peptide … (hCE3C peptide, without the N-terminal Cys)], the IC50 ratio (mutant/wt) (ratio (mutant/wt)) in test [1] amounted to 1; in test [2], 1.4; in test [3], 1.5.
